Test results from US12508311B2, “Fusion protein, and preparation method and use thereof” (SUN YAT-SEN UNIVERSITY, priority 2021, dated 2025).

How the values were obtained:
[1] = biological target: T1, KRas protein (Homo sapiens, UniProt P01116); experiment: ELISA of binding level to the KRas protein in vitro; settings: coated at 1 ng/μL, KRas 6.25-100 μg, compared with the control group
T1 construct: made in house
Experimental: 100 μL of coating solution was added into each well of 96-well ELISA plate to coat overnight at 4° C. • (3) Blocking: the ELISA plate was cleaned with a phosphate buffer solution (PBS) (PBS formula: 4 g of NaCl, 0.1 g of KCl, 1.815 g of disodium hydrogen phosphate dodecahydrate, and 0.12 g of […], dissolved in 400 mL of ultrapure water, with a constant volume of 500 mL for use) for 5 minutes each time. 300 μL of 5% (w/v) bovine serum albumin was added into each well, and blocked at 37° C. for 2 hours. • (4) Adding of the purified protein KRas: 6.25 μg, 12.5 μg, 25 μg, 50 μg and 100 μg of purified protein were respectively pre-mixed and diluted in 200 μL of PBS, and the diluted KRas protein was added into the wells in sequence, and slowly shaken at the room temperature for 5 hours. […] Main steps of the example were as follows: • (1) Coupling of ligand: the target coupling amount was calculated according to the following formula: […]

[2] = biological target: T1, KRas protein; experiment: SPR binding capacity experiment (BiacoreT200); settings: in vitro; for binding capacity with the KRas protein (SPR): molecule coupled on CM5 chip, KRas flowing
Experimental: 100 μL of coating solution was added into each well of 96-well ELISA plate to coat overnight at 4° C. • (3) Blocking: the ELISA plate was cleaned with a phosphate buffer solution (PBS) (PBS formula: 4 g of NaCl, 0.1 g of KCl, 1.815 g of disodium hydrogen phosphate dodecahydrate, and 0.12 g of […], dissolved in 400 mL of ultrapure water, with a constant volume of 500 mL for use) for 5 minutes each time. 300 μL of 5% (w/v) bovine serum albumin was added into each well, and blocked at 37° C. for 2 hours. • (4) Adding of the purified protein KRas: 6.25 μg, 12.5 μg, 25 μg, 50 μg and 100 μg of purified protein were respectively pre-mixed and diluted in 200 μL of PBS, and the diluted KRas protein was added into the wells in sequence, and slowly shaken at the room temperature for 5 hours. […] Main steps of the example were as follows: • (1) Coupling of ligand: the target coupling amount was calculated according to the following formula:
[formula] wherein Rmax was the maximum binding capacity on the chip surface, and 100 RU was usually substituted in a protein test. […] Through the preconcentration experiment, it was determined that pH 5.0 was the optimal coupling condition. […] In this experiment, aimforimmobilized level was selected, and the calculated 110RU was inputted in target level. […]

T1 sequence (P01116 whole entry): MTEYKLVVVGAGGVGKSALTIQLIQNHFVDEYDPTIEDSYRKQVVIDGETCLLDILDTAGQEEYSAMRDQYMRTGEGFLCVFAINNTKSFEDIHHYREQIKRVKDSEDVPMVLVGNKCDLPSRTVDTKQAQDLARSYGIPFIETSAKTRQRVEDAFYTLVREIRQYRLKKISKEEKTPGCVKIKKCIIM

Molecule	interaction with the KRas protein (ELISA, OD450-OD630) [1]	level of binding between TKD and the KRas protein (SPR) [2]	binding capacity with the KRas protein (SPR) [2]
TKD: fusion protein: tumour-cell-penetrating peptide BR2, anti-KRas nanobody VHH and lysosome recognition peptide CTM; SEQ ID NO.4 (protein) RAGLQFPVGRLLRRLLRDVQLQESGGGLVQAGGSLRLSCVASGRTFSTYPTGWFRQAPGKEREFVARINLSGGITNYADSVKGRFTISRDNAKNTVYLQMNSLKPEDTAVYYCGGGSTTWAGGIPTNFDYWGQGTQVTVSSGRKFERQKILDQRFFE	had a stronger interaction with the KRas protein	reached the level of antigen-antibody binding (nM)	had a strong binding capacity with the KRas protein in vitro
TKDm: control molecule of TKD with mutated CTM fragment (CTMmt) which could not be recognized by a lysosome; SEQ ID NO.5 (protein) RAGLQFPVGRLLRRLLRDVQLQESGGGLVQAGGSLRLSCVASGRTFSTYPTGWFRQAPGKEREFVARINLSGGITNYADSVKGRFTISRDNAKNTVYLQMNSLKPEDTAVYYCGGGSTTWAGGIPTNFDYWGQGTQVTVSSGRKFERAKILDARFFE	had a stronger interaction with the KRas protein		had a strong binding capacity with the KRas protein in vitro
